Results from patent US20260258397A1, “REAGENTS AND SYSTEMS FOR […]” (priority 2023, published 2026).
Entries after “also recorded” stand apart in the source; their conditions may differ. Where two headings read alike, the source gives them in different places.

B1: PYR1^DIAZI (protein)
chain: MPSELTPGERSELKNSIAEFHTYQLDPGSCSSLHAQRIHAPPELVWSIVRRFDKPQTYKHFIKSCSVEQNFEMRVGCTRDYIVISGMPANTSTERLDILDDERRVTGYSIIGGEHRLTNYKSVTTVHRFEKENRIWTVVLESYVVDMPEGNSEDDTRVGVDTVVKLNLQKLATVAEAMARNSGDGSGSQVT
B2: PYL2^WIN: PYL2 sensor (K64Q, F165A, V1661), SEQ ID NO: 37 (protein)
chain: MSSSPAVKGLTDEEQKTLEPVIKTYHQFEPDPTTCTSLITQRIHAPASVVWPLIRRFDNPERYQHFVKRCRLISGDGDVGSVREVTVISGLPASTSTERLEFVDDDHRVLSFRVVGGEHRLKNYKSVTSVNEFLNQDSGKVYTVVLESYTVDIPEGNTEEDTKMAIDTVVKLNLQKLGVAATSAPMHDDE
B3: PYR1^PIRI (protein)
chain: MPSELTPEERSELKNSIAEFHTYQLDPGSCSSLHAQRIHAPPELVWSIVRRFDKPQTYRHFIKSCSVEQNFEMRVGCTRDVIVISGLPANTMTERLDILDDERRVTGFSIIGGEHRLTSYKQVTTVHRFGKENRIWTVVLESYVVDMPEGNSEDDTRMTTDTVVKLNLQKLATAAEAMARNSGDGSGSQVT

Tests used:
Luc^N-PYR1/Luc^C-ΔN-HAB1 = experiment: In vivo split NanoLuc luciferase complementation in yeast; type: cell-based, S. cerevisiae; conditions: read-out: EC50 split luciferase reconstitution
Protocol: Ligand was added to yeast cultures 12 h prior to measuring cell luminescence. A sample of each culture was diluted to an OD600 of 0.2, 10 μL of which was transferred to a 96-well plate, the luciferase reagent mixture (Nano-Glo live cell substrate; Promega) diluted to a 1× concentration with DI water was added to the cell sample to a final volume of 200 μL. The relative luminescence signal (RLU) was measured using a Synergy™ Neo2 Multi-Mode Microplate Reader in luminescence detection mode for 30 minutes after the addition of the reagents. The RLU of each measured sample was taken as the average value of the time course once the signal had reached a plateau.
A protein complementation output assay of evolved PYR-based sensors was carried out by NanoLuc split luciferase (19). The larger fragment, LgBit (or Luc^N), was fused to N-terminus of PYR1 variants, while the small fragment, SmBit (or Luc^C) was fused to N-terminus of ΔN-HAB1. […] Ligand was added to yeast cultures 12 hour prior to measuring cell luminescence. […] The relative luminescence signal (RLU) was immediately measured continuously in a Synergy™ Neo2 Multi-Mode Microplate Reader over 30 minutes. The average value of RLU of each measured sample was taken once the measurements had reached a stable value. […]

ΔN-HAB1 = experiment: Ligand/receptor-mediated PP2C (ΔN-HAB1 phosphatase) inhibition by recombinant PYR1 sensors; type: biochemical, Arabidopsis; conditions: for response of evolved organophosphate receptors to native ligand ABA: HAB1 inhibition and Y2H assays, ABA tested at 5000 nM in Y2H; for EC50: read-out: EC50, receptor-mediated inhibition of HAB1 phosphatase activity in vitro
Protocol: Coding sequences of the cannabinoid sensors were cloned into the protein expression vector pET28a to encode 6×His-tag-receptor fusions.
(§1) High-affinity sensors were tested for cross reaction using both Y2H and in vitro PP2C assays. […] Similar methods were used to characterize PYR1^PIRI and PYR1^WIN sensor selectivity and sensitivity.

HAB1 = experiment: Y2H X-gal staining of evolved sensors: ligand responsiveness and cross reaction; type: cell-based, Arabidopsis; conditions: Y2H, FIG. 7; WIN 55,212-2 or 4F-MDMB-BUTINACA
Protocol: as §1
The PYL2 coding sequence cloned in the Y2H pBD vector was used as template to incorporate the corresponding PYR1^WIN and PYR1^4F homologous residues via site directed mutagenesis using the QuikChange Lightning Multi Site-Directed mutagenesis kit (Agilent Technologies). Resulting clones PYL2^WIN (K64Q, F165A, V1661) and PYL2^4F (H119Q, Y124G, F165V, V166G) were sequence confirmed and incorporated into MAV99 harboring pACT-HAB1 and tested for ligand activation using uracil-independent growth and X-gal staining experiments. The same method was used to generate a PYL2^WIN version in a protein expression vector for crystallization studies.

Molecule | EC50 (Luc^N-PYR1/Luc^C-ΔN-HAB1; Luc^N-PYR1^DIAZI/Luc^C-HAB1 in yeast, ligand diazinon) [nM] | response of evolved organophosphate receptors to native ligand ABA (ΔN-HAB1) | EC50 (ΔN-HAB1; sensor PYR1^DIAZI, ligand diazinon) [nM] | ligand responsiveness of PYL2 transposed sensors (HAB1) | EC50 (Luc^N-PYR1/Luc^C-ΔN-HAB1; Luc^N-PYR1^PIRI/Luc^C-HAB1 in yeast, ligand pirimiphos-methyl) [nM] | EC50 (ΔN-HAB1; sensor PYR1^PIRI, ligand pirimiphos-methyl) [nM]
B1 | 24 | no longer bind the native ligand ABA; also recorded: neither receptor was activated by ABA | 36 | – | – | –
B2 | – | – | – | nM ligand responsiveness | – | –
B3 | – | no longer bind the native ligand ABA; also recorded: neither receptor was activated by ABA | – | – | 19 | 58
